Primed or numbered codes have the meaning given here. Where no end group is shown, it is not given here. PEG2′ = not defined here

The target in this assay is Hedgehog acyltransferase (Hhat), triple tagged (HA-FLAG-His) WT (UniProt Q5VTY9).
UniProt Q5VTY9, sequence (Q5VTY9 whole entry): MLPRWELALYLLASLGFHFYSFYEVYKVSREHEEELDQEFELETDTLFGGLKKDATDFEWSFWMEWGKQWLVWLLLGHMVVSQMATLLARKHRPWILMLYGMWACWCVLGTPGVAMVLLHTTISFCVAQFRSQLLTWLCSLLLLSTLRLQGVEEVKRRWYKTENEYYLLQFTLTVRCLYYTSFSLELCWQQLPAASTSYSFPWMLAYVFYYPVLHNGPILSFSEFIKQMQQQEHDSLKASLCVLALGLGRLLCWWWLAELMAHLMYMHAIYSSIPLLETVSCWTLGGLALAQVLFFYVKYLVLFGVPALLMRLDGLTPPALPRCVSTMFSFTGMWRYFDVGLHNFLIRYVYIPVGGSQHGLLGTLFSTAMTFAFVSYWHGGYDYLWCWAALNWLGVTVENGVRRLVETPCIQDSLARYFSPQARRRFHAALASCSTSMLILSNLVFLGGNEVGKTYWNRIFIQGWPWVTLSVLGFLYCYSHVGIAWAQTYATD

With CGPGRGFGKR-{PEG2′-K(Biotin)-NH2} [biotinylated WT Shh peptide, …-(PEG2)-K(Biotin)-NH2], the apparent Km for Shh peptide, Hhat-mediated NBD-fatty acylation of Shh peptide (initial rates, 10 min, 37 °C), Shh titrated in the presence of 25 μM NBD-myristoyl-CoA (14:0) stood at 10.7 μM Shh; the apparent Km for Shh peptide, Hhat-mediated NBD-fatty acylation of Shh peptide (initial rates, 10 min, 37 °C), Shh titrated in the presence of 25 μM NBD-oleoyl-CoA (18:1) was 19.7 μM Shh; the apparent Km for Shh peptide, Hhat-mediated NBD-fatty acylation of Shh peptide (initial rates, 10 min, 37 °C), Shh titrated in the presence of 25 μM NBD-palmitoleoyl-CoA (16:1) was 5 μM Shh; the apparent Km for Shh peptide, Hhat-mediated NBD-fatty acylation of Shh peptide (initial rates, 10 min, 37 °C), Shh titrated in the presence of 25 μM NBD-palmitoyl-CoA (16:0) amounted to 10.4 μM Shh.

Values taken from publication PMC9513256.
